Measurements: US11566081B2, “Anti-acetaminophen antibodies and acetaminophen protein adducts” (BioVentures, LLC, priority 2014, dated 2023)

Tested on: acetaminophen protein adduct (BSA-APAP, 3-(cystein-S-yl)acetaminophen)
Assay: Competitive ELISA: relative inhibitory potency of APAP-protein adduct (BSA-APAP) versus free APAP
Type: binding
Conditions: inhibitors BSA-APAP vs APAP on a molar basis, clone supernatant final dilution 1:500
Text: Tissue culture supernatants from Rabbit monoclonal antibody clone 14-12 at a dilution of 1:250 was mixed with serial 4-fold dilutions of inhibitor (either BSA-APAP or APAP) such that the final dilution of RmAb was 1:500. The final concentrations of APAP were 80, 20, 5, 1.25, and 0.31 nmole per ELISA well. The final concentrations of APAP-BSA (quantified by HPLC-EC as APAP-Cys from the hydrolyzed protein) were 10, 2.5, 0.625, 0.156, and 0.04 pmole per ELISA well.
Synthetically prepared acetaminophen-protein adduct (BSA-APAP) and free drug (APAP) were evaluated in competitive ELISA to determine their relative capacity, on a molar basis, to inhibit the binding of clone 14-12 rabbit monoclonal antibody to solid-phase immobilized acetaminophen protein adduct. […] Restated, clone 14-12 antibody has approximately 8000 times more affinity for acetaminophen protein adduct than it does for free APAP as measured in this ELISA context.
The competitive ELISA was repeated with rabbit monoclonal antibody (RMAb) 14-12 and rabbit monoclonal antibody (RMAb) 22-8. […] After incubation and washing, bound RMAb was detected using Goat anti-Rabbit-IgG conjugated to HRP followed by the substrate TMB and color development was determined using an ELISA plate reader. […]

B1: 14-12: rabbit monoclonal antibody to acetaminophen-protein adduct, immunogen CP-2IT-APAP; light chain SEQ ID NO:13, heavy chain SEQ ID NO:14 (antibody)
heavy: METGLRWLLLVAVLKGVQCQSVEESGGRLVTPGTPLTLTCTVSGFSINAYGINWVRQAPGKGLEYIGFSAPHTASYARWTKGRFTMSRTSTTVDLRMTSPTTEDTATYFCARYDRGGMVFNLWGQGTLVTVSSGQPKAPSVFPLAPCCGDTPSSTVTLGCLVKGYLPEPVTVTWNSGTLTNGVRTFPSVRQSSGLYSLSSVVSVTSSSQPVTCNVAHPATNTKVDKTVAPSTCSKPTCPPPELLGGPSVFIFPPKPKDTLMISRTPEVTCVVVDVSQDDPEVQFTWYINNEQVRTARPPLREQQFNSTIRVVSTLPIAHQDWLRGKEFKCKVHNKALPAPIEKTISKARGQPLEPKVYTMGPPREELSSRSVSLTCMINGFYPSDISVEWEKNGKAEDNYKTTPAVLDSDGSYFLYSKLSVPTSEWQRGDVFTCSVMHEALHNHYTQKSISRSPGK
light: MDTRAPTQLLGLLLLWLPGATFALVMTQTPSSVPAAVGGTVTIGCQASQSISRQVSWYQQKPGQPPKLLIYRASTLASGVSSRFKGSGSGTEFTLTISGVQCDDAATYYCLGIVTDRIADGLAFGGGTEVVVKGDPVAPTVLIFPPAADQVATGTVTIVCVANKYFPDVTVTWEVDGTTQTTGIENSKTPQNSADCTYNLSSTLTLTSTQYNSHKEYTCKVTQGTTSVVQSFNRGDC
B1 was tested, and the “times more affinity for acetaminophen protein adduct than for free APAP” value was “approximately 8000 times”.

B2: 22-8: rabbit monoclonal antibody to acetaminophen-protein adduct, immunogen CP-2IT-APAP; light chain SEQ ID NO:15, heavy chain SEQ ID NO:16 (antibody)
heavy: METGLRWLLLVAVLKGVQCQSLEESGGRLVTPGGSLTLTCTASGLTINNYYIIWVRQAPGKGLKYIGITYGGGFAYYASWAKGRFTISRTSTTVDLKMTSLTAEDTATYFCVRAAAGGAYDLWGQGTLVTVSSGQPKAPSVFPLAPCCGDTPSSTVTLGCLVKGYLPEPVTVTWNSGTLTNGVRTFPSVRQSSGLYSLSSVVSVTSSSQPVTCNVAHPATNTKVDKTVAPSTCSKPTCPPPELLGGPSVFIFPPKPKDTLMISRTPEVTCVVVDVSQDDPEVQFTWYINNEQVRTARPPLREQQFNSTIRVVSTLPIAHQDWLRGKEFKCKVHNKALPAPIEKTISKARGQPLEPKVYTMGPPREELSSRSVSLTCMINGFYPSDISVEWEKNGKAEDNYKTTPAVLDSDGSYFLYSKLSVPTSEWQRGDVFTCSVMHEALHNHYTQKSISRSPGK
light: MDTRAPTQLLGLLLLWLPGATFAIEMTQTPSPVSAVVGGTVTINCQSSQNVFRKNYLSWFQQKPGQPPKLLISYIDSLTSGVPSRFSGSGAGTQFTLTISDVQCDDAATYYCLGVDGSANDATFGGGTEVVVEGDPVAPTVLIFPPAADQVATGTVTIVCVANKYFPDVTVTWEVDGTTQTTGIENSKTPQNSADCTYNLSSTLTLTSTQYNSHKEYTCKVTQGTTSVVQSFNRGDC
In the case of B2, the “times more affinity for acetaminophen protein adduct than for free APAP” value is reported as “approximately 1250 times”.
